The text below walks through data of patent US20240383993A1 (LANOVA MEDICINES, published 2024).

Where a chain is given by its changes, count along the chain named. Names may count otherwise.

Assay [1] deals with T1, human 4-1BB expressed on cells (human, UniProt Q07011 24-255).
T1 construct: whole, on cells; also called CHO-K1/hu4-1BB; cell surface human 4-1BB
Description: flow cytometry competition with biotinylated human 4-1BB ligand on CHO-K1/human 4-1BB cells. Here is the method: CHO-K1 cells overexpressing human 4-1BB were incubated with biotinylated human 4-1BB ligand (0.3 μg/ml) in the presence of serial diluted anti-41BB nanobodies for 1 h at 4° C. with Ref mAb as the reference antibody. Then, cells were incubated with Alexa Fluor 633-conjugated streptavidin. Binding was measured with an Agilent flow cytometer. As shown in FIG. 2 and Table 3, all of the tested nanobodies could block 4-1BB ligand binding to 4-1BB in a concentration-dependent manner while Ref mAb had no such effect.

Assay [2] addresses T2, His-tagged human 4-1BB protein (human, UniProt Q07011 24-186).
T2 construct: Coated on ELISA plates at 2 µg/ml; also called hu4-1BB; soluble human 4-1BB; not shown: His tag
The experiment in a line: ELISA, coated His-tagged 4-1BB, anti-human IgG-HRP. Here is the method: (§1) His-tagged 4-1BB was coated at 2 μg/ml overnight and then blocked by 2% BSA in PBS. Serially diluted anti-4-1BB nanobodies were incubated with the coated antigen for 1h at room temperature with a reference antibody “Ref mAb”. The resulting plates were washed with PBS/T and incubated with goat anti-human IgG-HRP for 1 h at room temperature. The plates were developed with TMB substrate and analyzed by spectrophotometer at OD 450 nm.
In general terms: An ELISA detects its analyte on a solid surface through an enzyme-linked reagent.

The target in assay [3] is T3, His-tagged cynomolgus 4-1BB protein (cynomolgus, UniProt A9YYE7 24-186).
T3 construct: Coated on ELISA plates at 2 µg/ml; also called Cyno 4-1BB; soluble cynomolgus 4-1BB; not shown: His tag
T3 sequence: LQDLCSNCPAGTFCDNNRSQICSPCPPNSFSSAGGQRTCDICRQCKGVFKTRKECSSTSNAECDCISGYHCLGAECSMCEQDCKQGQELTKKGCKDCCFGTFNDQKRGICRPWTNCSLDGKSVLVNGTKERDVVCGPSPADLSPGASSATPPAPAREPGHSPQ
Description: ELISA, coated His-tagged 4-1BB, anti-human IgG-HRP. On the procedure: as §1

For assay [4], the target named is T1, human 4-1BB expressed on cells. Description: cell-based or functional assay.

T1 sequence (Q07011 24-255): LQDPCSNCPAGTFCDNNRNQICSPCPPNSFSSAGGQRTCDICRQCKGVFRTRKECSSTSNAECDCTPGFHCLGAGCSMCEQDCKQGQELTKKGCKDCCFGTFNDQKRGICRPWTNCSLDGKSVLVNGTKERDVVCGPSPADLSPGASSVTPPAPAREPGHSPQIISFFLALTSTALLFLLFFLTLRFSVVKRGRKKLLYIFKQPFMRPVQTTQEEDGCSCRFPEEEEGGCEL

B1: VV02-1SP (1)-168 (Fc fusion, not shown: a dimerising Fc or GST; small tags and cut ends)
VHH: QVQLVESGGGLVQPGGSLRLSCAASGFTFSSYAMSWARQAPGKDFEWVSYIYSDGNTYYADSVKGRFTISRDNAKNTVYLQMNSLKPEDTAVYYCATWHTLRVGVWDEYDYWGQGTQVTVSS
notes: Llama nanobody tested as fusion with human IgG1 Fc (N297A)
What is called IC50 is the concentration needed to halve the response being measured. A high value points to weaker potency in that assay. Usually EC50 stands for the midpoint of the concentration-response curve. The low end stands for a more potent agent, the high end for a less potent agent. In assay [1], B1 came in with an IC50 of 0.387 nM. In addition, the EC50 is over 30 nM in assay [2] and 0.06 nM in assay [3]. Moreover, the “EC50 (nM) in Jurkat-41BB NFκB reporter assay” value (“EC50 (nM)” for short) in assay [4] came to 0.002 nM.

B2: VV02-1LP-263 (Fc fusion)
VHH: EVQLVESGGGLVQPGGSLRLSCAASGFTFSSSAMSWARQTPGKGFEWVSGIYSDGSTYYTDSVKDRFTISRDNAKNTVYLQMNSLKPEDTAVYYCATWGTLRFGVWAEYDHWGQGTQVTVSS
notes: Llama nanobody tested as fusion with human IgG1 Fc (N297A); not shown: Human IgG1 Fc fragment with N297A, fused at the C-terminus of the VHH
Molecule B2 showed an IC50 in assay [1] of 0.566 nM. The EC50 in assay [2] was over 30 nM; in assay [3] it was 0.04 nM. Also, the “EC50 (nM)” value in assay [4] is 0.017 nM.

B3: VV02-1SP (1)-73 (Fc fusion, not shown: a dimerising Fc or GST; small tags and cut ends)
VHH: EVDLVESGGGLVQPGGSLRLSCAVSGFTFSNSAMSWARQAPGKEFEWVSSIYSDGKTYYVDSVKGRFTISRDNAKNTVYLQMSSLKPEDTAVYYCATWKTLRVGVWDESDYWGQGTQVTVSS
notes: as for B1
Regarding B3, the IC50 in assay [1] amounted to 0.573 nM. The EC50 in assay [2] is over 30 nM; in assay [3], 0.11 nM. In addition, in assay [4], the “EC50 (nM)” value was 0.01 nM.

B4: VV02-1LP-238 (Fc fusion, not shown: a dimerising Fc or GST; small tags and cut ends)
VHH: QVQLVESGGGLVQAGGALRLSCAASGFTLDYSAIGWFRQAPGKEREGVLCISSSGDVTIYADSVKGRFTISRDNAKNTVYLQMNSLKPEDTAVYYCVAPRICSTYSSDDYWGQGTQVTVSS
notes: as for B1
Molecule B4 registered an IC50 in assay [1] of 1.88 nM. Moreover, the values for the EC50 in assay [2] and in assay [3] were 9.12 nM and 26.5 nM, respectively. Further, in assay [4], the “EC50 (nM)” value was found to be 0.008 nM.

B5: VV02-1LP-422 (Fc fusion, not shown: a dimerising Fc or GST; small tags and cut ends)
VHH: B4 VHH with V2L, A14P, A17S, D30A, Y31D, S32Y
notes: as for B1
Consider B5, for which, in assay [1], the IC50 turned out to be 1.48 nM. Moreover, the EC50 in assay [2] worked out at 0.37 nM; in assay [3], 6.94 nM. For the same molecule, the “EC50 (nM)” value in assay [4] was found to be 0.013 nM.

B6: VV02-3LP-142 (Fc fusion)
VHH: AVQLVESGGGLVQRGGSLKLSCVGSGFDFSDHAMSWARQVPGKGFEWVAYIYSDGSTYYADSVKGRFTISRDNAKDTVYLHMNSLKFEDMAVYYCATWRSQQVGRWDEYDHWGQGTQVTVSS
notes: Llama nanobody tested as fusion with human IgG1 Fc (N297A); not shown: Human IgG1 Fc fragment with N297A, plus the hinge or linker joining it to the nanobody
B6 registered an IC50 in assay [1] of 0.923 nM. Moreover, the EC50 in assay [2] is over 30 nM; in assay [3] it was 18.2 nM. For the same molecule, the “EC50 (nM)” value in assay [4] was determined as 0.014 nM.
